Laboratory results published in doi:10.1101/2020.05.22.111047.

Target: Carbonic anhydrase 1 (CA1) (human, UniProt P00915 2-261)
Assay: G-FET

Sequence of Carbonic anhydrase 1 (CA1) (P00915 2-261): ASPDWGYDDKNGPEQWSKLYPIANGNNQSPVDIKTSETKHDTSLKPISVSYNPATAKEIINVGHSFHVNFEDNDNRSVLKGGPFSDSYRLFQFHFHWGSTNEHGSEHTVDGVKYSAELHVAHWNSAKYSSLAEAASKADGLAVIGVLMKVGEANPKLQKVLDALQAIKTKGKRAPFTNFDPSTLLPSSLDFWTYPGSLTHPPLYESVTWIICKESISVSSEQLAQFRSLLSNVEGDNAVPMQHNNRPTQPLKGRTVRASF

CAGGCGCAGUAUCACUUUGUGAUCAUUAGUGGGUUCCGUG (ssRNA, 5' amine, coupled to graphene via PBASE linker) [CA1 RNA aptamer]
Kd: 2.27 ng/mL
